Data on 30 sequences can be found in the supplement of paper PMC9170038.

The test system of this series is MS2 coat protein. The series can be described thus: apparent KD of MS2 coat protein; designed switch direction (-1 OFF switch, 1 ON switch): -1; higher = weaker reporter binding. The procedure, abridged:
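The apparent KD reported per design is the median over clusters of curve fits to normalised cluster fluorescence. The RNA switches were transcribed on Illumina chips by stalled E. coli RNA polymerase. SNAP-549-labelled MS2 coat protein was titrated from 0.7 or 1.5 nM, doubling up to 3 µM, in Tris-HCl pH 7.5 buffer containing KCl, MgCl2, BSA, DTT, tRNA and Tween-20, with no input, 200 uM small-molecule ligand, or an oligonucleotide input.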

[1] abbreviates: Eterna round: R95, input ligand: FMN 200 uM.
The mark [2] stands for this setting: Eterna round: R95, input ligand: microRNA oligo, concentration not stated.
Setting [3] is: Eterna round: R95, input ligand: none.
Setting [4] is: input ligand: microRNA oligo, concentration not stated.

In the case of “UAUUAGCAAGCAAGAUCCUACAUGAGGAUCACCCAUGUGCUCGUCUUAAACUCAGAAUUACUGAGAGCUCGUCUUAU [Winner reversed engineered 24] (Eterna round: R97, puzzle: Sensor, turn-off variant 1)”, the “apparent KD of MS2 coat protein” value is, setting by setting: (input ligand: FMN 200 uM) 443 nM; (input ligand: none) 515 nM.

For the sequence “UAUUAGCAAGCCAGAUCCCACAUGAGGAUCACCCAUGUGCUCGUCUUAUAAGGUACUGUGACGAAAGUCACGGUACC [Sensor 3, v1 - 93] (puzzle: Sensor v3, turn-off variant 1)”, the “apparent KD of MS2 coat protein” value was 137 nM under setting [1], 1120 nM under setting [2] and 184 nM under setting [3].

For “UAUUAGCAAGCGAGAUCCCACAUGAGGAUCACCCAUGUAAAAGCAUCCAGAAUUACUGGGUGCAAAGCUCGUCUUAU [Winner reversed engineered 7] (Eterna round: R97, puzzle: Sensor, turn-off variant 1)”, the “apparent KD of MS2 coat protein” value amounted to 30.1 nM (input ligand: FMN 200 uM) and 24.8 nM (input ligand: none).

Consider “UAUUAGCAAGCGAGAUCCCACAUGAGGAUCACCCAUGUAAAGCAUCCAGAAUUACUGGGUGCAAAAGCUCGUCUUUA [Winner reversed engineered 5] (Eterna round: R97, puzzle: Sensor, turn-off variant 1)”, for which the “apparent KD of MS2 coat protein” value by setting is: (input ligand: FMN 200 uM) 28.7 nM; (input ligand: none) 40 nM.

In the case of “UAUUAGCAAGCGAGAUCCCACAUGAGGAUCACCCAUGUGCUCGUCUUAUAAAGUACUGUGACGAAAGUCACGGUACU [Mat - Sensor, turn-off var - Eli Mod - D7] (Eterna round: R97, puzzle: Sensor, turn-off variant 1)”, the “apparent KD of MS2 coat protein” value is, setting by setting: (input ligand: FMN 200 uM) 15.2 nM; (input ligand: none) 14.6 nM.

Take “UAUUAGCAAGCGAGAUCCCACAUGAGGAUCACCCAUGUGCUCGUCUUAUAAAGUACUGUGACGAUAGUCACGGUACA [Mat - Sensor, turn-off var - Eli Mod - D8] (Eterna round: R97, puzzle: Sensor, turn-off variant 1)”: the “apparent KD of MS2 coat protein” value is 16.6 nM (input ligand: FMN 200 uM) and 15.6 nM (input ligand: none).

For the sequence “UAUUAGCAAGUAAGAUCCCACAUGAGGAUCACCCAUGUGCUCGUCAUAUCAGGUACUGUGAGGAAACUCACGGUACG [Sensor-V1 #86] (Eterna round: R97, puzzle: Sensor, turn-off variant 1)”, the “apparent KD of MS2 coat protein” value runs as follows: (input ligand: FMN 200 uM) 127 nM; (input ligand: none) 169 nM.

As for “UAUUAGCAAGUGAGAUCCGACAUGAGGAUCACCCAUGUGCUCGUCUUAUAAGGUAAUAUGACAAAAGUCAUAUUACC [Elimod 5 - Jieux - Sensor, turn-off variant 1] (Eterna round: R97, puzzle: Sensor, turn-off variant 1)”, the “apparent KD of MS2 coat protein” value (input ligand: FMN 200 uM) amounted to 301 nM and the “apparent KD of MS2 coat protein” value (input ligand: none) was 293 nM.

As for “UAUUAGUAAGGAUAUCCCACGUAGGACUUCGGUCCUACGUGGGAGAAGGUACAUGAGGAUCACCCAUGUCUAUU [Mod of Fisker 13 - Jieux - Exclusion 4] (Eterna round: R97, puzzle: Exclusion 4)”, the “apparent KD of MS2 coat protein” value (input ligand: FMN 200 uM) is 16.6 nM and the “apparent KD of MS2 coat protein” value (input ligand: none) was found to be 14.9 nM.

“UAUUAGUAAGGAUAUGCGACGUAGGACGAAAGUCCUACGUCGCAGAAGGUACAUGAGGAUCACCCAUGUCUAUU [Mod of Fisker 11 - Jieux - Exclusion 4] (Eterna round: R97, puzzle: Exclusion 4)”: the “apparent KD of MS2 coat protein” value turned out to be 20.5 nM (input ligand: FMN 200 uM) and 18.7 nM (input ligand: none).

“UAUUAUCAAGCAAGAUCCUACAUGAGGAUCACCCAUGUGCUCGUCUUAUAAGGUACUGUGACGAAAGUCACGGUACC [Sensor 3, v1 - 73] (puzzle: Sensor v3, turn-off variant 1)”: the “apparent KD of MS2 coat protein” value reads like this: under setting [1], 107 nM; under setting [2], 107 nM; under setting [3], 153 nM.

With “UAUUAUCAAGUAAGAUCCUACAUGAGGAUCACCCAUGUGCUCGUCUUAUAAGGUACUGUGACGAAAGUCACGGUACC [Sensor 3, v1 - 74] (puzzle: Sensor v3, turn-off variant 1)”, the “apparent KD of MS2 coat protein” value came out at 31.3 nM under setting [1], 332 nM under setting [2] and 33.8 nM under setting [3].

Turning to “UAUUCGCAAGCAAAUGGGUACAUGAGGAUCACCCAUGUGCUCGUCUUAUAAGGUACUGUGACGAAAGUCACGGUACC [mod--Eli9] (Eterna round: R97, puzzle: Sensor, turn-off variant 1)”, the “apparent KD of MS2 coat protein” value is 20.9 nM (input ligand: FMN 200 uM) and 20.3 nM (input ligand: none).

“UAUUGUAGACAGGAUAUCUAUCGGGUAACCCGAAGAGAAGGGUCUACAUGAGGAUCACCCAUGUGGCCCGUUUU [EX6 B.29] (Eterna round: R97, puzzle: Exclusion 6)”: the “apparent KD of MS2 coat protein” value (input ligand: FMN 200 uM) came to 42 nM and the “apparent KD of MS2 coat protein” value (input ligand: none) is 21.5 nM.

“UAUUUAAGAGGAUAUACAUGAGGAUCACCCAUGUAUAUUAAAAUACAUGAUUUUUUAUGUAGAAGGCUUGGGUA [-21.5, -18.3 kcal, 35% A] (Eterna round: R97, puzzle: Exclusion 3)”: the “apparent KD of MS2 coat protein” value stood at 23.6 nM (input ligand: FMN 200 uM) and 16.9 nM (input ligand: none).

On to “UAUUUACGAGGAUAUCGUUUUUUUCACAUGAGGAUCACCCAUGUUGUUUAUGUUGCGUUGCGAGAAGGCGUUUGUU [JR_E5_Sub062] (puzzle: Exclusion 5)”, for which the “apparent KD of MS2 coat protein” value under setting [2] stood at 26.6 nM.

In the case of “UAUUUAGCAAGCAGAUCCUACAUGAGGAUCACCCAUGUGCUCUGAAAUAACGCAGAAUUACUGCGAGCUCGUCUUAU [Winner reversed engineered 27] (Eterna round: R97, puzzle: Sensor, turn-off variant 1)”, the “apparent KD of MS2 coat protein” value turned out to be 85.7 nM (input ligand: FMN 200 uM) and 120 nM (input ligand: none).

In the case of “UAUUUAUAGCAAGGAUAUGAUUAUUAUUAUUUAUCAGAAGGUGCACAUGAGGAUCACCCAUGUUUUACAAUUUGUAAUUUAAUU [Default title] (Eterna round: R96, puzzle: Exclusion NG 1)”, the “apparent KD of MS2 coat protein” value under setting [4] worked out at 31.1 nM.

For “UAUUUAUAUGAAGGAUAUACUUAACAUGAGGAUCACCCAUGUGGUGUUGUGAGUGAGUGAGUUUAGUAGAAGGUCAAUUAUUUU [JMF's solution 30] (Eterna round: R96, puzzle: Exclusion NG 2)”, the “apparent KD of MS2 coat protein” value turned out to be 282 nM (input ligand: FMN 200 uM), 131 nM under setting [4] and 222 nM (input ligand: none).

On to “UAUUUGCAAGCGAGAUCCCACAUGAGGAUCACCCAUGUGCUCGUCUUAUAAGGUACUGUGACGAGAGUCACGGUACC [Mat - Sensor, turn-off var - Eli Mod - D90] (Eterna round: R97, puzzle: Sensor, turn-off variant 1)”, for which the “apparent KD of MS2 coat protein” value (input ligand: FMN 200 uM) worked out at 15 nM and the “apparent KD of MS2 coat protein” value (input ligand: none) came out at 15.6 nM.

As for “UAUUUGCAAGGAUAUGAUUUAAGUAACAUGAGGAUCACCCAUGUUUUUCCGUUGUUAUGUUCAGAAGGUGCGUGAU [JR_E5_Sub020] (puzzle: Exclusion 5)”, under setting [2], the “apparent KD of MS2 coat protein” value was determined as 50.9 nM.

Consider “UCAACGCAAGGAUAUACUUGCGGUGAUGUUCGAAUUCUUCUACUUGAGGAUCACCCAAGUAGAAGGUGCGGUGA [jl-ex2.4.64 ViennaUCT mod] (Eterna round: R97, puzzle: Exclusion 2)”, for which the “apparent KD of MS2 coat protein” value by setting is: (input ligand: FMN 200 uM) 14 nM; (input ligand: none) 13.1 nM.

For the sequence “UCAAGUAUGUAGGAUAUGAUGUGAUUCUACAUAUCAGAAGGACGUACAUGAGGAUCACCCAUGUAACUUGCAUG [Exclusion 6 - B - 12:d] (puzzle: Exclusion 6)”, the “apparent KD of MS2 coat protein” value reads like this: under setting [1], 96.2 nM; under setting [2], 33.1 nM; under setting [3], 32 nM.

With “UCAAUUAUGACAGGAUAUAGUUUUUGUUUUUCUCUAGAAGGGUCUAUGCACAUGAGGAUCACCCAUGUUCUUUUUAUUUGCAUU [JR_ExcNG1_Sub016] (Eterna round: R96, puzzle: Exclusion NG 1)”, the “apparent KD of MS2 coat protein” value runs as follows: (input ligand: FMN 200 uM) 47.5 nM; under setting [4], 46.1 nM; (input ligand: none) 70.9 nM.

Regarding “UCACAGUUAGGAUAUGCGAGUUUGGUGUGCAUCCUAGACAUACAUGAGGAUCACCCAUGUAGAAGGAAUAGUGG [Eternabot (L2) Solution 80] (Eterna round: R97, puzzle: Exclusion 2)”, the “apparent KD of MS2 coat protein” value worked out at 34.5 nM (input ligand: FMN 200 uM) and 27.1 nM (input ligand: none).

Regarding “UCACCGCAAGGAUAUACUUGCGGUGAUGCUCGAAAUCUUCUACUUGAGGAUCACCCAAGUAGAAGGUGCGGUGA [jl-ex2.4.67 ViennaUCT mod] (Eterna round: R97, puzzle: Exclusion 2)”, the “apparent KD of MS2 coat protein” value amounted to 13 nM (input ligand: FMN 200 uM) and 12.1 nM (input ligand: none).

Take “UCACGGGACUGAGGAUAUACAUCAACAAUGGUUGUAGAAGGCAGAAGGUUGAAUCAUAUACAAAACAUGAGGAUCACCCAUGUA [JR_ExcNG1_Sub032] (Eterna round: R96, puzzle: Exclusion NG 1)”: the “apparent KD of MS2 coat protein” value is, setting by setting: (input ligand: FMN 200 uM) 23 nM; under setting [4], 23.8 nM; (input ligand: none) 26.2 nM.

Regarding “UCACGGGACUGAGGAUAUACAUGAACUAUUUUUGUAGAAGGCAGAAUGUUAGAUUAUACACUAAACAUGAGGAUCACCCAUGUU [JR_ExcNG1_Sub024] (Eterna round: R96, puzzle: Exclusion NG 1)”, the “apparent KD of MS2 coat protein” value under setting [4] is 15.1 nM.

In the case of “UCACGGGACUGAGGAUAUACAUGAAUUAUUUUUGUAGAAGGCAGAAUGUUAGAUUAUACACUAUACAUGAGGAUCACCCAUGUU [JR_ExcNG1_Sub023] (Eterna round: R96, puzzle: Exclusion NG 1)”, the “apparent KD of MS2 coat protein” value worked out at 16.1 nM (input ligand: FMN 200 uM), 20.5 nM under setting [4] and 19.7 nM (input ligand: none).

Regarding “UCAGGUGCAGGAUAUACAUGAGGAUCACCCAUGUAGAUCAACCAGCGAUAGCUGGAAUGUAGAAGGGCACCUGA [E3/5-D2] (Eterna round: R97, puzzle: Exclusion 3)”, the “apparent KD of MS2 coat protein” value reads like this: (input ligand: FMN 200 uM) 100 nM; (input ligand: none) 19.7 nM.
